Target: CA 15-3 (Cancer Antigen 15-3) (UniProt P15941 24-1097)
Assay: electrochemical aptasensor (CV, SWV, EIS); label-free, ferri/ferrocyanide redox probe; aptamer on g-C3N4/Fe3O4; linear 10-90 U/mL; PBS pH 7.4 (0.1 M), room temperature, 35 min incubation; 0.2 mM ferricyanide probe (label-free) or methylene blue in PBS (label-based)

Sequence of CA 15-3 (Cancer Antigen 15-3) (P15941 24-1097): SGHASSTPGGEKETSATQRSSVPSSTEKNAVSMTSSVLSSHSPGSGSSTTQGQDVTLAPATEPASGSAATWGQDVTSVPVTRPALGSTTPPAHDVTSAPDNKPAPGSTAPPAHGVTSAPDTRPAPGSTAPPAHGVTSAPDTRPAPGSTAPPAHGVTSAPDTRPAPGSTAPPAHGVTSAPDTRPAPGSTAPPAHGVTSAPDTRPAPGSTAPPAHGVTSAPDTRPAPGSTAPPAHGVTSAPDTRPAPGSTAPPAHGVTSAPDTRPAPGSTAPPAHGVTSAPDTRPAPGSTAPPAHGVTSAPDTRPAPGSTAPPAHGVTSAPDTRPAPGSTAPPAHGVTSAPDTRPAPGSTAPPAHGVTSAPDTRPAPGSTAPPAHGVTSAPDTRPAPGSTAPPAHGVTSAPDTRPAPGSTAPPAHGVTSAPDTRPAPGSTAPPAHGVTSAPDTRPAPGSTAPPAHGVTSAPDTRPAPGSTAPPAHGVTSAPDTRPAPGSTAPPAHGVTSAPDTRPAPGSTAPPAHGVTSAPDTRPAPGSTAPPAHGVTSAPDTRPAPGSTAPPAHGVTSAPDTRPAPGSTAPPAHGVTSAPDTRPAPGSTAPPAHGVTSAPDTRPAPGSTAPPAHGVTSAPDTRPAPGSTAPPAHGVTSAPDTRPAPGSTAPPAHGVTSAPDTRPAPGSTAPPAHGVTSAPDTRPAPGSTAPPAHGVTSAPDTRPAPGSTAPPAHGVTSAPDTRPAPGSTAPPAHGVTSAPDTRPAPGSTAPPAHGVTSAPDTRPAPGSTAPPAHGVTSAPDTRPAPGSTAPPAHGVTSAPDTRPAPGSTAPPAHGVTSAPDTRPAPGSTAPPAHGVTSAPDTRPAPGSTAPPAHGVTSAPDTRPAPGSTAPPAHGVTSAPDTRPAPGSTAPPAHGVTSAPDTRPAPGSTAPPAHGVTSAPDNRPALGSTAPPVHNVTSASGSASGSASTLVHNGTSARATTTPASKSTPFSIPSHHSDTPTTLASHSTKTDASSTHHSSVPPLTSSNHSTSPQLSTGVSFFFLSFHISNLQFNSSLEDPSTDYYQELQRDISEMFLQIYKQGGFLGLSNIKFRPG

GAAGTGAATATGACAGATCACAACT (ssDNA) [CA 15-3 aptamer]: binds.

— article PMC9688306, “Construction of Aptamer-Based Nanobiosensor for Breast Cancer Biomarkers Detection Utilizing g-C3N4/Magnetic Nano-Structure”
